Data reported in PMC3794860, “An RNA-Binding Complex Involved in Ribosome Biogenesis Contains a Protein with Homology to tRNA CCA-Adding Enzyme” (PLoS Biology, 2013).

Biological target: T1, Utp22 (S. cerevisiae, UniProt P53254 1-1237)
T1 construct: Utp22, yeast, 1,237 residues, amplified from yeast genomic DNA, cloned with no tag; Residues 1-80 and several internal loops are not visible in the crystal; A selenomethionine-labelled form was used for phasing; source: High Five insect cells, recombinant baculovirus, coexpressed with Rrp7, copurified (HisTrap, heparin, Superdex 200)
T1 sequence (looked up): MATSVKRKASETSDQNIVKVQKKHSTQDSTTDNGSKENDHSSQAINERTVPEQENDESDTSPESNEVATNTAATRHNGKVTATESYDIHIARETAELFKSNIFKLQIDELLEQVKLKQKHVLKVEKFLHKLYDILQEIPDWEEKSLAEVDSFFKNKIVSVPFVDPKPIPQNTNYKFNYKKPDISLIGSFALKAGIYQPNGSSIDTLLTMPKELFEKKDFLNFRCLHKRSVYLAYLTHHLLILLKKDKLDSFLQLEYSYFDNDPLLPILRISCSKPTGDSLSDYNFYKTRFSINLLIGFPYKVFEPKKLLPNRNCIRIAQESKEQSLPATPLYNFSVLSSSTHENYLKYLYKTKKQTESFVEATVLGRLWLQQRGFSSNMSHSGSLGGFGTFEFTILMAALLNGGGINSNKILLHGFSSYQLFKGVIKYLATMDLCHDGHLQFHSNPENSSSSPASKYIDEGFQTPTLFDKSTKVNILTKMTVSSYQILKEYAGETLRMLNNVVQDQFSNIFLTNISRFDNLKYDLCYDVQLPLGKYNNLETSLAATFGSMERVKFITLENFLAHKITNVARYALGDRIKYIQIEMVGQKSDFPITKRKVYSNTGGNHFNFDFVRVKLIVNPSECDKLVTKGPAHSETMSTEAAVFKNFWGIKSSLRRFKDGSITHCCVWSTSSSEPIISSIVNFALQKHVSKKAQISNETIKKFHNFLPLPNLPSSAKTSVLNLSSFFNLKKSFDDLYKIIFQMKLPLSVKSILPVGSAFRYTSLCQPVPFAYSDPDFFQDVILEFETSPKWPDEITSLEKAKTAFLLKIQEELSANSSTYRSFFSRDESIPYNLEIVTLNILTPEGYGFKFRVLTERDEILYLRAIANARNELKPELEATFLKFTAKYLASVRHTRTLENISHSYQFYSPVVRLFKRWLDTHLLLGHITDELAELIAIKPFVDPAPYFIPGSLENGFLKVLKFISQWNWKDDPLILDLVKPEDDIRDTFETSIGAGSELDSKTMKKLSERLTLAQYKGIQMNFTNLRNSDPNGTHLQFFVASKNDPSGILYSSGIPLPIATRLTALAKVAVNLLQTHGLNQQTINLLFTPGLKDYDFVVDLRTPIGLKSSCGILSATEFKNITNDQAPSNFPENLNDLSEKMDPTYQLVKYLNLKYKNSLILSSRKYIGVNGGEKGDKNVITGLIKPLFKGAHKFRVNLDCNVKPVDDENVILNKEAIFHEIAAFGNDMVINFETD
Test: crystal structure; Utp22 and Rrp7 coexpressed in insect cells, copurified and cocrystallised; hanging drop, 20°C, 100 mM sodium cacodylate pH 6.2–6.5, 30% PEG 400, 200 mM lithium sulfate; refined to 1.97 Å
Conditions: both partners purified

B1: Rrp7 (natural protein, S. cerevisiae, UniProt P25368 1-297, looked up)
chain: MGIEDISAMKNGFIVVPFKLPDHKALPKSQEASLHFMFAKRHQSSNSNESDCLFLVNLPLLSNIEHMKKFVGQLCGKYDTVSHVEELLYNDEFGLHEVDLSALTSDLMSSTDVNEKRYTPRNTALLKFVDAASINNCWNALKKYSNLHAKHPNELFEWTYTTPSFTTFVNFYKPLDIDYLKEDIHTHMAIFEQREAQAQEDVQSSIVDEDGFTLVVGKNTKSLNSIRKKILNKNPLSKHENKAKPISNIDKKAKKDFYRFQVRERKKQEINQLLSKFKEDQERIKVMKAKRKFNPYT
notes: N-terminal His6-tag followed by a PreScission site, cleaved with PreScission protease; source: High Five insect cells, recombinant baculovirus, coexpressed with Utp22, copurified (HisTrap, heparin, Superdex 200); not shown: His6, N-terminal, cleaved
- binding result: binds
